These results are taken from paper PMC11907795.

This data set has as its target PthA4-His (Xanthomonas citri subsp. citri (strain …, UniProt A0AAI8ETU3 1-1163)). Briefly: EMSA; poly dI-dC; unlabeled competitor 1x-800x. The settings on record: protein: recombinant; tags: His (N-terminal, pET28a); label: Cy5; blunt. A general note: Mobility shift assays separate free from complexed probe on a gel.

B1: ProCsGRAS9 (dsDNA)
DNA 1: TATATACATACACACACACACACACACACATAT
DNA 2: ATATGTGTGTGTGTGTGTGTGTGTATGTATATA
As for B1, the binding result is “binds”.
